This is an account of results in patent US20220273789A1.

A value given as a limit tells only on which side of the number the result lay.

The test has as its target human IgG (human). Put plainly: BLI Octet, construct on Ni-NTA sensor, hIgG in solution. A general note: Biolayer interferometry detects binding as a change in optical thickness at a sensor tip.

Broadly, the Kd is a measure of binding affinity in units of concentration. Low readings indicate tighter binding, high ones weaker binding. One may read the koff as the first-order rate constant of dissociation. One may read the kon as the second-order rate constant of association. Low values mean slow association, high ones fast association. In turn, “HSV2-gE_P317F_gI (from UniProt P89475 21-416; P06764 21-256) (receptor)” displayed a Kd of 8770 nM, a Response (nm) of 0.143 nm, a dissociation rate constant (koff) of 0.00166 s⁻¹ and a kon of 189 M⁻¹ s⁻¹.
For “HSV2-gE_P317G_gI (from UniProt P89475 21-416; P06764 21-256) (receptor)”, in that order: 555 nM, 0.338 nm, 0.00429 s⁻¹ and 7740 M⁻¹ s⁻¹.
The like results for “HSV2-gE_P317I_gI (from UniProt P89475 21-416; P06764 21-256) (receptor)” were, in that order, 1000 nM, 0.243 nm, 0.00382 s⁻¹ and 3810 M⁻¹ s⁻¹.
For “HSV2-gE_P317K_gI (from UniProt P89475 21-416; P06764 21-256) (receptor)”, in that order: 374 nM, 0.13 nm, 0.00136 s⁻¹ and 3640 M⁻¹ s⁻¹.
Substance “HSV2-gE_P317L_gI (from UniProt P89475 21-416; P06764 21-256) (receptor)” registered a Kd of 5110 nM, a Response (nm) of 0.161 nm, a koff of 0.00181 s⁻¹ and a kon of 354 M⁻¹ s⁻¹.
The substance “HSV2-gE_P317N_gI (from UniProt P89475 21-416; P06764 21-256) (receptor)” had a Kd of 500 nM, a Response (nm) of 0.381 nm, a koff of 0.00459 s⁻¹ and an on-rate (kon) of 9180 M⁻¹ s⁻¹.
For “HSV2-gE_P317S_gI (from UniProt P89475 21-416; P06764 21-256) (receptor)”, in that order: 255 nM, 0.669 nm, 0.00358 s⁻¹ and 14000 M⁻¹ s⁻¹.
Substance “HSV2-gE_P318D_gI (from UniProt P89475 21-416; P06764 21-256) (receptor)” displayed a Kd below 0.001 nM, a Response (nm) of 0.0995 nm, a koff below 1e-07 s⁻¹ and a kon of 5180 M⁻¹ s⁻¹.
For “HSV2-gE_P318Q_gI (from UniProt P89475 21-416; P06764 21-256) (receptor)”, the Kd amounted to 443 nM, the Response (nm) was 0.152 nm, the koff turned out to be 0.00139 s⁻¹ and the kon came to 3150 M⁻¹ s⁻¹.
In the case of “HSV2-gE_P318R_gI (from UniProt P89475 21-416; P06764 21-256) (receptor)”, the Kd was found to be 794 nM, the Response (nm) came out at 0.151 nm, the koff stood at 0.000756 s⁻¹ and the kon turned out to be 952 M⁻¹ s⁻¹.
The like results for “HSV2-gE_P318S_gI (from UniProt P89475 21-416; P06764 21-256) (receptor)” were, in that order, 9900 nM, 0.124 nm, 0.00504 s⁻¹ and 509 M⁻¹ s⁻¹.
For “HSV2-gE_P318T_gI (from UniProt P89475 21-416; P06764 21-256) (receptor)”, in that order: 14900 nM, 0.174 nm, 0.00711 s⁻¹ and 478 M⁻¹ s⁻¹.
Take “HSV2-gE_P318Y_gI (from UniProt P89475 21-416; P06764 21-256) (receptor)”: the dissociation constant Kd is below 0.001 nM, the Response (nm) was determined as 0.0215 nm, the koff is below 1e-07 s⁻¹ and the kon amounted to 3480 M⁻¹ s⁻¹.
In the case of “HSV2-gE_P319L_gI (from UniProt P89475 21-416; P06764 21-256) (receptor)”, the Kd was 1390 nM, the Response (nm) worked out at 0.328 nm, the koff is 0.00444 s⁻¹ and the kon worked out at 3190 M⁻¹ s⁻¹.
For “HSV2-gE_R314A_gI (from UniProt P89475 21-416; P06764 21-256) (receptor)”, the Kd amounted to 468 nM, the Response (nm) is 0.629 nm, the koff turned out to be 0.00557 s⁻¹ and the kon was determined as 11900 M⁻¹ s⁻¹.
In the case of “HSV2-gE_R314D_gI (from UniProt P89475 21-416; P06764 21-256) (receptor)”, the Kd amounted to 900 nM, the Response (nm) is 0.385 nm, the koff was 0.00583 s⁻¹ and the kon is 6480 M⁻¹ s⁻¹.
The like results for “HSV2-gE_R314E_gI (from UniProt P89475 21-416; P06764 21-256) (receptor)” were, in that order, 1300 nM, 0.306 nm, 0.0058 s⁻¹ and 4470 M⁻¹ s⁻¹.
In the case of “HSV2-gE_R314F_gI (from UniProt P89475 21-416; P06764 21-256) (receptor)”, the Kd stood at 884 nM, the Response (nm) turned out to be 0.325 nm, the koff came to 0.0048 s⁻¹ and the kon came to 5430 M⁻¹ s⁻¹.
As to “HSV2-gE_R314G_gI (from UniProt P89475 21-416; P06764 21-256) (receptor)”, the Kd was found to be 572 nM, the Response (nm) is 0.478 nm, the koff was found to be 0.0052 s⁻¹ and the kon came out at 9080 M⁻¹ s⁻¹.
The like results for “HSV2-gE_R314I_gI (from UniProt P89475 21-416; P06764 21-256) (receptor)” were, in that order, 658 nM, 0.446 nm, 0.00556 s⁻¹ and 8450 M⁻¹ s⁻¹.
“HSV2-gE_R314K_gI (from UniProt P89475 21-416; P06764 21-256) (receptor)” showed a Kd of 583 nM, a Response (nm) of 0.461 nm, a koff of 0.00549 s⁻¹ and a kon of 9420 M⁻¹ s⁻¹.
“HSV2-gE_R314L_gI (from UniProt P89475 21-416; P06764 21-256) (receptor)” had a Kd of 702 nM, a Response (nm) of 0.442 nm, a koff of 0.00521 s⁻¹ and a kon of 7430 M⁻¹ s⁻¹.
As to “HSV2-gE_R314M_gI (from UniProt P89475 21-416; P06764 21-256) (receptor)”, the equilibrium dissociation constant (Kd) was found to be 608 nM, the Response (nm) was 0.519 nm, the koff was determined as 0.00592 s⁻¹ and the kon stood at 9730 M⁻¹ s⁻¹.
The substance “HSV2-gE_R314N_gI (from UniProt P89475 21-416; P06764 21-256) (receptor)” displayed a Kd of 1310 nM, a Response (nm) of 0.301 nm, a koff of 0.00748 s⁻¹ and a kon of 5700 M⁻¹ s⁻¹.
Substance “HSV2-gE_R314P_gI (from UniProt P89475 21-416; P06764 21-256) (receptor)” returned a Kd of 443 nM, a Response (nm) of 0.557 nm, a dissociation rate constant (koff) of 0.00474 s⁻¹ and a kon of 10700 M⁻¹ s⁻¹.
On to “HSV2-gE_R314Q_gI (from UniProt P89475 21-416; P06764 21-256) (receptor)”, for which the Kd came to 498 nM, the Response (nm) was determined as 0.568 nm, the koff was found to be 0.00535 s⁻¹ and the kon was 10800 M⁻¹ s⁻¹.
In the case of “HSV2-gE_R314S_gI (from UniProt P89475 21-416; P06764 21-256) (receptor)”, the Kd worked out at 406 nM, the Response (nm) was determined as 0.585 nm, the koff came out at 0.00515 s⁻¹ and the kon worked out at 12700 M⁻¹ s⁻¹.
For “HSV2-gE_R314T_gI (from UniProt P89475 21-416; P06764 21-256) (receptor)”, in that order: 575 nM, 0.417 nm, 0.0049 s⁻¹ and 8530 M⁻¹ s⁻¹.
Substance “HSV2-gE_R314V_gI (from UniProt P89475 21-416; P06764 21-256) (receptor)” gave a dissociation constant (Kd) of 538 nM, a Response (nm) of 0.408 nm, a koff of 0.00487 s⁻¹ and a kon of 9070 M⁻¹ s⁻¹.
The substance “HSV2-gE_R314Y_gI (from UniProt P89475 21-416; P06764 21-256) (receptor)” returned a Kd of 600 nM, a Response (nm) of 0.385 nm, a koff of 0.00441 s⁻¹ and a kon of 7350 M⁻¹ s⁻¹.
“HSV2-gE_R320A_gI (from UniProt P89475 21-416; P06764 21-256) (receptor)” came in with a dissociation constant Kd of 1500 nM, a Response (nm) of 0.295 nm, a koff of 0.00505 s⁻¹ and a kon of 3360 M⁻¹ s⁻¹.
For “HSV2-gE_R320G_gI (from UniProt P89475 21-416; P06764 21-256) (receptor)”, in that order: 1180 nM, 0.322 nm, 0.00462 s⁻¹ and 3920 M⁻¹ s⁻¹.
For “HSV2-gE_R320H_gI (from UniProt P89475 21-416; P06764 21-256) (receptor)”, the Kd stood at 4750 nM, the Response (nm) was 0.247 nm, the koff came out at 0.00421 s⁻¹ and the kon came to 886 M⁻¹ s⁻¹.
Consider “HSV2-gE_R320I_gI (from UniProt P89475 21-416; P06764 21-256) (receptor)”, for which the Kd came to 406 nM, the Response (nm) was found to be 0.622 nm, the koff worked out at 0.00438 s⁻¹ and the kon was 10800 M⁻¹ s⁻¹.
Substance “HSV2-gE_R320L_gI (from UniProt P89475 21-416; P06764 21-256) (receptor)” displayed a Kd of 291 nM, a Response (nm) of 0.785 nm, a koff of 0.00389 s⁻¹ and a kon of 13400 M⁻¹ s⁻¹.
“HSV2-gE_R320M_gI (from UniProt P89475 21-416; P06764 21-256) (receptor)” returned a Kd of 336 nM, a Response (nm) of 0.722 nm, a koff of 0.00462 s⁻¹ and a kon of 13700 M⁻¹ s⁻¹.
The like results for “HSV2-gE_R320N_gI (from UniProt P89475 21-416; P06764 21-256) (receptor)” were, in that order, 828 nM, 0.379 nm, 0.00493 s⁻¹ and 5950 M⁻¹ s⁻¹.
“HSV2-gE_R320P_gI (from UniProt P89475 21-416; P06764 21-256) (receptor)” registered a Kd of 1650 nM, a Response (nm) of 0.267 nm, a koff of 0.00235 s⁻¹ and a kon of 1420 M⁻¹ s⁻¹.
For “HSV2-gE_R320Q_gI (from UniProt P89475 21-416; P06764 21-256) (receptor)”, in that order: 902 nM, 0.351 nm, 0.00539 s⁻¹ and 5980 M⁻¹ s⁻¹.
